Where two headings read alike, the source gives them in different places.

Test [1] concerns the target TtSlyDFL Y63F (Thermus thermophilus).
The target in test [2] is full-length SlyD from Thermus thermophilus (TtSlyDFL) (Thermus thermophilus).
Test [3] deals with chimeric TtSlyD construct in which the IF domain is replaced by the flap loop from human FKBP12 (TtSlyDΔIF) (Thermus thermophilus | human) (UniProt P62942).
The target is the same in test [4]. The source holds these as a separate data set.
Test [5] has the same target. The source holds these as a separate data set.
The target of test [6] is full-length SlyD from Thermus thermophilus (TtSlyDFL) (Thermus thermophilus). This is another data set of the same source.
Test [7] shares this target. This is another data set of the same source.
Test [8] concerns the target chimeric TtSlyD construct in which the IF domain is replaced by the flap loop from human FKBP12 (TtSlyDΔIF) (Thermus thermophilus | human) (UniProt P62942). This is another data set of the same source.
In test [9] the target is full-length SlyD from Thermus thermophilus (TtSlyDFL) (Thermus thermophilus). This is another data set of the same source.
For test [10], the target named is chimeric TtSlyD construct in which the IF domain is replaced by the flap loop from human FKBP12 (TtSlyDΔIF) (Thermus thermophilus | human) (UniProt P62942). The source holds these as a separate data set.

In test [1], S2 peptide came in with a KD1 (site 1, IF domain) of 0.03 µM; a KD2 (site 2, FKBP domain) of 1.58 µM; an N1 (site 1, IF domain) of 0.81; an N2 (site 2, FKBP domain) of 0.78. In test [1], the dH1 (site 1, IF domain) was -11.3 kcal/mol and the dH2 (site 2, FKBP domain) is -6 kcal/mol. In test [2], this substance registered a KD1 (site 1, IF domain) of 0.15 µM; a KD2 (site 2, FKBP domain) of 3.16 µM; an N1 (site 1, IF domain) of 0.98; an N2 (site 2, FKBP domain) of 1.05. In [2], this substance came in with a dH1 (site 1, IF domain) of -14.8 kcal/mol and a dH2 (site 2, FKBP domain) of -8.9 kcal/mol. Besides, in [3], the Kd (commonly a measure of binding affinity in units of concentration) was 12.2 µM; the dH was -5.9 kcal/mol; the stoichiometry N (commonly the number of molecules, sites or subunits per partner or assembly) came to 0.88. In test [4], this substance showed a Kd of 14.4 µM, a dH of -10 kcal/mol and a stoichiometry N of 0.91.

In the case of “S2-P25A peptide (from UniProt P0A7V0 20-34)”, the kcat/KM of peptidyl-prolyl cis/trans isomerization of the S2-P25A peptide, NMR lineshape analysis, 25 °C, 0.2 μM enzyme in test [5] is 2.48e+08 M⁻¹ s⁻¹. In [6], the kcat/KM of peptidyl-prolyl cis/trans isomerization of the S2-P25A peptide, NMR lineshape analysis, 25 °C, 0.2 μM enzyme, peptide 10–1000 μM worked out at 3.68e+08 M⁻¹ s⁻¹. In [4], this substance yielded a Kd of 12.1 µM, a dH of -11.7 kcal/mol and a stoichiometry N of 0.91. In [7], this substance showed a KD1 (site 1, IF domain) of 0.129 µM; a KD2 (site 2, FKBP domain) of 7.04 µM; an N1 (site 1, IF domain) of 0.92; an N2 (site 2, FKBP domain) of 1.02. In test [7], this substance returned a dH1 (site 1, IF domain) of -16.6 kcal/mol and a dH2 (site 2, FKBP domain) of -8.5 kcal/mol. Further, in [8], the kcat/KM of peptidyl-prolyl cis/trans isomerization of the S2-P25A peptide, NMR lineshape analysis, 25 °C, 0.2 μM enzyme amounted to 2.84e+08 M⁻¹ s⁻¹. In addition, in test [9], the KM of peptidyl-prolyl cis/trans isomerization of the S2-P25A peptide (cis form), Michaelis-Menten fit of NMR lineshape data, 25 °C was 2000 µM.

In [10], “S2-P25A/P29E peptide (from UniProt P0A7V0 20-34)” yielded a Kd of 29 µM, a dH of -6.3 kcal/mol and a stoichiometry N of 0.84. In test [2], this substance registered a KD1 (site 1, IF domain) of 1.45 µM; a KD2 (site 2, FKBP domain) of 44 µM; an N1 (site 1, IF domain) of 1.13; an N2 (site 2, FKBP domain) of 1.09. In test [2], this substance showed a dH1 (site 1, IF domain) of -14.1 kcal/mol and a dH2 (site 2, FKBP domain) of -5.9 kcal/mol.

On to “S2-P25N/P29N peptide (from UniProt P0A7V0 20-34)”, for which, in [2], the KD1 (site 1, IF domain) came out at 0.234 µM; the KD2 (site 2, FKBP domain) is 8.33 µM; the N1 (site 1, IF domain) is 0.93; the N2 (site 2, FKBP domain) stood at 1.18. In test [2], this substance registered a dH1 (site 1, IF domain) of -16.8 kcal/mol and a dH2 (site 2, FKBP domain) of -2.3 kcal/mol.

In test [4], “S2-P29E peptide (from UniProt P0A7V0 20-34)” registered a Kd of 13.8 µM, a dH of -10.8 kcal/mol and a stoichiometry N of 0.69. In [7], this substance returned a KD1 (site 1, IF domain) of 0.513 µM; a KD2 (site 2, FKBP domain) of 5.68 µM; an N1 (site 1, IF domain) of 0.88; an N2 (site 2, FKBP domain) of 1.02. In [7], the dH1 (site 1, IF domain) was -15.8 kcal/mol and the dH2 (site 2, FKBP domain) was -2.7 kcal/mol.

In the case of “S2-W23A peptide (from UniProt P0A7V0 20-34)”, in test [4], the Kd is 17.1 µM, the dH was -8.1 kcal/mol and the stoichiometry N stood at 0.77. In test [7], this substance gave a KD1 (site 1, IF domain) of 0.855 µM; a KD2 (site 2, FKBP domain) of 18.8 µM; an N1 (site 1, IF domain) of 0.76; an N2 (site 2, FKBP domain) of 0.91. In test [7], the dH1 (site 1, IF domain) is -15.8 kcal/mol and the dH2 (site 2, FKBP domain) was -2.3 kcal/mol.

In test [7], SlpA linker P5T peptide displayed a Kd of 130 µM, a dH of -0.9 kcal/mol and a stoichiometry N of 1.76.

For the origin of these results see PMC5034536, “Molecular insights into substrate recognition and catalytic mechanism of the chaperone and FKBP peptidyl-prolyl isomerase SlyD” (BMC Biology, 2016).
